This note sets out measurements from US20260022175A1 (Chugai, published 2026).

Numbering of substitutions follows the chain as printed.

Holding throughout (assay): SPR Biacore 8k+ 25C, antibody captured, FcγR analyte; mean
For assay [1], the target named is T1, human FcγRIa extracellular domain with C-terminal His tag (human, UniProt P12314 16-288).
T1 construct: also called hFcγRIa

Assay [2] has as its target T2, human FcγRIIa(H) extracellular domain with C-terminal His tag (human, UniProt P12318 34-217).
T2 construct: also called hFcγRIIa(H)
T2 sequence: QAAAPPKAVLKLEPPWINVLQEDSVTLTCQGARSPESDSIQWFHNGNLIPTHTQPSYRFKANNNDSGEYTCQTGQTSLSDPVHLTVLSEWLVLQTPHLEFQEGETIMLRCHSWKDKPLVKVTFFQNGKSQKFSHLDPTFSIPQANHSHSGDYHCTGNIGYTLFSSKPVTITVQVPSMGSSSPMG

Assay [3] concerns the target T3, human FcγRIIa(R) extracellular domain with C-terminal His tag (human, UniProt P12318 34-217).
T3 construct: also called hFcγRIIa(R)
T3 chain: T2 sequence with H134R

For assay [4], the target named is T4, human FcγRIIb extracellular domain with C-terminal His tag (human, UniProt P31994 43-217).
T4 construct: also called hFcγRIIb
T4 sequence: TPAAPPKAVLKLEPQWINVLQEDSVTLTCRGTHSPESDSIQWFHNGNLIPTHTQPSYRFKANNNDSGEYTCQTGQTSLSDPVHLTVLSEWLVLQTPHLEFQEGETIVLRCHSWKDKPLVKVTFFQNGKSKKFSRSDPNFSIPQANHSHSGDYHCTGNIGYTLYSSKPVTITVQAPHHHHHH

Assay [5] addresses T5, human FcγRIIIa(V) extracellular domain with C-terminal His tag (human, UniProt P08637 17-208).
T5 construct: also called hFcγRIIIa(V)

Assay [6] concerns the target T6, human FcγRIIIa(F) extracellular domain with C-terminal His tag (human, UniProt P08637 17-208).
T6 construct: also called hFcγRIIIa(F)

For assay [7], the target named is T7, cynomolgus monkey FcγRIIa3 extracellular domain with His tag (cynomolgus monkey).
T7 construct: also called cyFcγRIIa3
T7 chain: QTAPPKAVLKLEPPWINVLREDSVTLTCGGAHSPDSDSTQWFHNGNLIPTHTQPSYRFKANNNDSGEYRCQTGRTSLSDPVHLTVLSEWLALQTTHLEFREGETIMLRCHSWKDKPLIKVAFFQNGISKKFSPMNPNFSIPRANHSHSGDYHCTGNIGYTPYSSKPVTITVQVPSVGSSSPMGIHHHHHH

For assay [8], the target named is T8, cynomolgus monkey FcγRIIb extracellular domain with His tag (cynomolgus monkey).
T8 construct: also called cyFcγRIIb
T8 chain: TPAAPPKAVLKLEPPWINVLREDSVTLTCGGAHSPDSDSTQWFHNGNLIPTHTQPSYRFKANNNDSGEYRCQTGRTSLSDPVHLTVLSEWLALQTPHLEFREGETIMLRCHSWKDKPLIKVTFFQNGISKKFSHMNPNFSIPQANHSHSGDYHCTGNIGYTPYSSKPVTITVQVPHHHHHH

Assay [9] deals with T9, cynomolgus monkey FcγRIIIa(R) extracellular domain with His tag (cynomolgus monkey, UniProt Q8SPW2 17-208).
T9 construct: also called cyFcγRIIIa(R)
T9 sequence (Q8SPW2 other isoform, or with tags, fused parts or gaps): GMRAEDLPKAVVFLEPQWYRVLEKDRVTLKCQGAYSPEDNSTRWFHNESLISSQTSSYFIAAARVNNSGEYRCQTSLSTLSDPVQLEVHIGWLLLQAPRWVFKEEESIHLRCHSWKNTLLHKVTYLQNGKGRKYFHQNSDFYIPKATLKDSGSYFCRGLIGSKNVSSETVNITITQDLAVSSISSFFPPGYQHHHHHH

The target of assay [10] is T10, cynomolgus monkey FcγRIIIa(S) extracellular domain with His tag (cynomolgus monkey, UniProt Q8SPW2 21-206 at identity 1.00)).
T10 construct: also called cyFcγRIIIa(S)
T10 chain: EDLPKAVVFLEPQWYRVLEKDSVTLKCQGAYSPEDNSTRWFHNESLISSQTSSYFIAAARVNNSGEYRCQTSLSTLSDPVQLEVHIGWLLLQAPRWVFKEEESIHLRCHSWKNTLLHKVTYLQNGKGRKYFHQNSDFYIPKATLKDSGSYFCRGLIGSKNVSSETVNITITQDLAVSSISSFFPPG

In assay [11] the target is T11, cynomolgus monkey FcγRIa extracellular domain with His tag (cynomolgus monkey, UniProt P12314 16-288 (human entry)).
T11 construct: also called cyFcγRIa
T11 chain: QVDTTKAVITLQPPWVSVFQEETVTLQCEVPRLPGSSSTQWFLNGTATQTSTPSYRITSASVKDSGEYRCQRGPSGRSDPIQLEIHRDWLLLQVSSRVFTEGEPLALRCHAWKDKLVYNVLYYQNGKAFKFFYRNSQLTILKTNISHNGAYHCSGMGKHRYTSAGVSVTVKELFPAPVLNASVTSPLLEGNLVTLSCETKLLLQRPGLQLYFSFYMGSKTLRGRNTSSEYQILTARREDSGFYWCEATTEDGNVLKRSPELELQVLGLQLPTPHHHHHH

The target of assay [12] is T12, cynomolgus monkey FcγRIIa1 extracellular domain with His tag (cynomolgus monkey).
T12 construct: also called cyFcγRIIa1
T12 chain: T7 chain with T95P, A121T, S128A, P133H, N135D

Assay [13] addresses T13, cynomolgus monkey FcγRIIa2 extracellular domain with His tag (cynomolgus monkey).
T13 construct: also called cyFcγRIIa2
T13 chain: T7 chain with I127K, K130N, P133H, R142Q

T6 sequence (P08637 other isoform, or with tags, fused parts or gaps): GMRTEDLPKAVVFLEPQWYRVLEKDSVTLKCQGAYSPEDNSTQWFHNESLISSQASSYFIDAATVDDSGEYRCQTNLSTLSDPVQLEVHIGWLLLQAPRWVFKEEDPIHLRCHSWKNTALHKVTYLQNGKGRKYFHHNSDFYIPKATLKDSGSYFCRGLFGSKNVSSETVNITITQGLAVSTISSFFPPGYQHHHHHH
T5 sequence (P08637 other isoform, or with tags, fused parts or gaps): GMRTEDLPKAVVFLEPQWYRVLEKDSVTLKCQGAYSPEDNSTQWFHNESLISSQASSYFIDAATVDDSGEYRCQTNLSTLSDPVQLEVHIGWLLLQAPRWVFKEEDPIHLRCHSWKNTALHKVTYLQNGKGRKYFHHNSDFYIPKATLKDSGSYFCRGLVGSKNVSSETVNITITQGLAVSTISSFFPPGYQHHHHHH

B1: 04H1654-KT498/04L1610-lam1//04H1656-HT518/04L1610-lam1 (antibody, human IgG1, lambda)
heavy 1: QVQLVESGGGVVQPGGSLRLSCAASGFTFSSKTMNWVRQAPGKGLEWVSSISTQSHYIYYARSVRGRFTISRDNAKNSLYLQMNSLRAEDTAVYYCARYGKREDMLWVFDYWGQGTLVTVSSASTKGPSVFPLAPSSKSTSGGTAALGCLVKDYFPEPVTVSWNSGALTSGVHTFPAVLQSSGLYSLSSVVTVPSSSLGTQTYICNVNHKPSNTKVDKRVEPKSCDKTHTCPPCPAPEFQWGPMVFLFPPKPKDVLMISRTPEVTCVVVDVSDEEPEVKFNWYVDGVEVHNAKTKPREEQYNATYRVVSVLPVLHQDWLNGKEYKCKVSNKALPMPIEKTISKAKGQPREPQVYTLPPSRKEMTKNQVSLTCLVKGFYPSDIAVEWESNGQPENNYKTTPPVLDSDGSFFLYSKLTVDKSRWQQGNVFSCSVMHEALHNHYTQKSLSLSP
heavy 2: QVQLVESGGGVVQPGGSLRLSCAASGFTFSSKTMNWVRQAPGKGLEWVSSISTQSHYIYYAESVRGRFTISRDNAKNSLYLQMNSLRAEDTAVYYCARYGAREDMLWVFDYWGQGTLVTVSSASTKGPSVFPLAPSSKSTSGGTAALGCLVKDYFPEPVTVSWNSGALTSGVHTFPAVLQSSGLYSLSSVVTVPSSSLGTQTYICNVNHKPSNTKVDKRVEPKSCDKTHTCPPCPAPELLGGPSVFLFPPKPKDVLMISRTPEVTCVVVDVSHEEPEVKFNWYVDGVEVHNAKTKPREEQYNATYRVVSVLPVLHQDWLNGKEYKCKVSNDALPMPIEETISKAKGQPREPQVYTLPPSREEMTKNQVSLTCLVKGFYPSDIAVEWESNGQPENNYKTTPPVLDSDGSFFLYSKLTVDKSRWQQGNVFSCSVMHEALHNHYTQESLSLSP
light: QSALTQPPSASGSPGQSVTISCEGPSTGVGDYNWVHWYQQHPGKAPKLMIYFTSKKPSGVPDRFSGSKSGNTASLTVSGLQAEDEADYYCQTYAAPLGPMFGGGTKLTVLGQPKAAPSVTLFPPSSEELQANKATLVCLISDFYPGAVTVAWKADSSPVKAGVETTTPSKQSNNKYAASSYLSLTPEQWKSHRSYSCQVTHEGSTVEKTVAPTECS
notes: also called SW1610-ART12
Usually Kd stands for the free concentration of one partner at which half of the binding sites on the other are occupied at equilibrium, for simple one-to-one binding. Take B1: the equilibrium dissociation constant (Kd) in assay [1] is 0.0387 nM; in assay [2], 343 nM; in assay [3], 1790 nM; in assay [4], 38800 nM; in [5] it was 1.82 nM; in assay [6], 4.13 nM. Further, the Kd in [7] amounted to 5290 nM; in [8], 2520 nM; in assay [9] it was 1.01 nM; in assay [10], 0.933 nM; in assay [11] it was 0.0106 nM; in [12] it was 540 nM. Besides, the equilibrium dissociation constant (Kd) in [13] was 2320 nM.
